The values that follow come from article doi:10.1101/2022.04.11.487887 (bioRxiv, 2022).

No end group written: not given here.

What is called stoichiometry N is a count of units in the complex or per binding partner.

The target of data set [1] is Halo-Xenopus γTuNA-GCN4 F75A (Xenopus laevis | yeast). The data set can be described thus: SEC. (SEC sorts molecules by how far they enter the pores of the column.)
Data set [2] concerns the target Halo-3C-AU1 reporter tagged human γTuNA, after PreScission (3C) cleavage (human). The data set can be described thus: co-sedimentation.
For data set [3], the target named is Strep-His-TEV-HaloTag-3C-Xenopus γTuNA (Xenopus laevis). As to the kind of experiment: pull-down.
Data set [4] has as its target Strep-His-Halo-3C-Xenopus γTuNA L70A (Xenopus laevis). As to the kind of experiment: pull-down.
The target in data set [5] is Strep-His-Halo-3C-Xenopus γTuNA I67A (Xenopus laevis). As to the kind of experiment: pull-down.
Data set [6] addresses Halo-Xenopus γTuNA-GCN4 wildtype (Xenopus laevis | yeast). The data set can be described thus: SEC.
The target of data set [7] is Halo-Xenopus γTuNA-GCN4 L77A (Xenopus laevis | yeast). The data set can be described thus: SEC.
The target in data set [8] is Halo-Xenopus γTuNA-GCN4 I67A (Xenopus laevis | yeast). As to the kind of experiment: SEC.
Data set [9] concerns the target Halo-Xenopus γTuNA-GCN4 L70A (Xenopus laevis | yeast). As to the kind of experiment: SEC.
The data set “SEC” deals with the molecule itself. As to the kind of experiment: SEC.

Xenopus γ-tubulin ring complex (γTuRC), sequence (Q5U4M5 whole entry, looked up): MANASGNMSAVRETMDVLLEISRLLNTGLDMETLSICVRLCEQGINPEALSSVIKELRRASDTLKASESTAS
Xenopus γ-tubulin ring complex (γTuRC), sequence (P23330 whole entry, looked up): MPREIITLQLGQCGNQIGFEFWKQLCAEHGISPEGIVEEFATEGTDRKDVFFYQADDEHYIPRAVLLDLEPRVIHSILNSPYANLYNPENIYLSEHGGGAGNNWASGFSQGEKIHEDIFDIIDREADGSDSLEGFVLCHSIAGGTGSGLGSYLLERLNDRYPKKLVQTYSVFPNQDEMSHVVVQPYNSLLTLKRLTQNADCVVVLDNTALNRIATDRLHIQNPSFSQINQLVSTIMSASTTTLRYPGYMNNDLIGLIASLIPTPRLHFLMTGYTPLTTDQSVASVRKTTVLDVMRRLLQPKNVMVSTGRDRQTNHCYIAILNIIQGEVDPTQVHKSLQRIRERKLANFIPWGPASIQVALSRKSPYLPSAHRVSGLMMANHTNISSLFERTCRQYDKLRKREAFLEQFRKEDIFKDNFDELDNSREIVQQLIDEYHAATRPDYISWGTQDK

Halo-Xenopus γTuNA-GCN4 F75A yielded a stoichiometry N in data set [1] of 2. In [2], “Xenopus γ-tubulin ring complex (γTuRC) (from UniProt P23330 1-451; Q5U4M5 1-72)” returned a percent of purified γTuRCs that lost their γTuNA dimer of 66%. The molecule also gave a percent of γ-tubulin signal lost from the extract after one round of depletion in data set [3] above 75%. Further, the figures for the percent of the wildtype's γTuRC binding in data set [4] and in data set [5] were 50% and 85%, respectively. In turn, Halo-Xenopus γTuNA-GCN4 wildtype gave a stoichiometry N in data set [6] of 2.

Halo-Xenopus γTuNA-GCN4 L77A: the stoichiometry N in data set [7] was determined as 2. The molecule Halo-Xenopus γTuNA-GCN4 I67A showed a stoichiometry N in data set [8] of 2. In [9], Halo-Xenopus γTuNA-GCN4 L70A had a stoichiometry N of 2. For SPTRARNMKDFENQITELKKENFNLKLRIYFLEERMQQEFHGPTEH (domain or fragment, not fully specified (N-terminus)) [Strep-His-TEV-HaloTag-3C-human γTuNA], the “stoichiometry N” value in “SEC” was 2. On to MKDFEKQIAELKKENFNLKLRIYFLEEQVQQKCDNSSEDLYRMNIE (domain or fragment, Xenopus laevis, not fully specified (N-terminus)) [Strep-His-TEV-HaloTag-3C-Xenopus γTuNA], for which the “stoichiometry N” value in the data set “SEC” was 2. Regarding MKDFEKQAAELKKENFNLKLRIYFLEEQVQQKCDNSSEDLYRMNIE (domain or fragment, Xenopus laevis, not fully specified (N-terminus)) [Strep-His-Halo-3C-Xenopus γTuNA I67A], in “SEC”, the binding result is given as “binds”. Take MKDFEKQIAEAKKENFNLKLRIYFLEEQVQQKCDNSSEDLYRMNIE (domain or fragment, Xenopus laevis, not fully specified (N-terminus)) [Strep-His-Halo-3C-Xenopus γTuNA L70A]: the binding result in “SEC” is “binds”. On the same count and under the same terms, the same measure for MKDAEKQIAELKKENFNLKLRIYFLEEQVQQKCDNSSEDLYRMNIE (domain or fragment, Xenopus laevis, not fully specified (N-terminus)) [Strep-His-Halo-3C-Xenopus γTuNA F63A]: “binds”; for MKDFEKQIAELKKENFNAKLRIYFLEEQVQQKCDNSSEDLYRMNIE (domain or fragment, Xenopus laevis, not fully specified (N-terminus)) [Strep-His-Halo-3C-Xenopus γTuNA L77A]: “binds”. In the case of MKDFEKQIAELKKENANLKLRIYFLEEQVQQKCDNSSEDLYRMNIE (domain or fragment, Xenopus laevis, not fully specified (N-terminus)) [Strep-His-TEV-HaloTag-3C-Xenopus γTuNA F75A], the binding result in “SEC” is recorded as “binds”.
